# T1: CD127 (as used in the BIAcore measurement of Table 1) (human, UniProt P16871 21-239, limits assumed)
# T1 construct: the Mabs are called anti-human CD127; also called alpha chain of the IL-7 receptor; IL-7Ralpha
# T1 sequence (looked up): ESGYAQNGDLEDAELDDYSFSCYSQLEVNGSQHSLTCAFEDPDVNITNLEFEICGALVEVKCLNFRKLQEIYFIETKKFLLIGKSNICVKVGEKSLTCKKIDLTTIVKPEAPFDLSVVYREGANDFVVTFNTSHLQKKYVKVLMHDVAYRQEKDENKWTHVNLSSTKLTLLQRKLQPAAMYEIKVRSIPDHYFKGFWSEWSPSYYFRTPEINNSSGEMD
# Molecular target: T1, CD127 (as used in the BIAcore …)
# Experiment: SPR (BIAcore)
row,Kd,Binder
1,1.31 nM,"MD707-13 (antibody, V domains shown, also called 7MD07-13; rat anti-human CD127 Mab MD707-13) VH: QLKESGPGLVQPSQTLSLTCTVSGLSLPNNNIAWIRQSPGKGLEWMGVIWSNGDTDYNSAIRSRLSISRDSSKSQVFLRMNSLQSEDTAMYFCAREGMTTLDYWGQGVVVTVSS VL: EIVLTQSPTTMAASPGEKVTITCRASSSVSYMHWFQQKSGSSPKPWIYDSSDLASGVPDRFSGSGSGTSYSLTISSMEAEDAATYYCLQRSSYPRTFGGGTKLELKR"
2,15.9 nM,"MD707-1 (antibody, V domains shown, also called 7MD07-1; rat anti-human CD127 Mab MD707-1) VH: AVHLVESGGGLVQPKESLKISCAASGFTFSNAAMFWVRQAPGKGLEWVARIRTKANNYATYYADSVKGRFTISRDDSKSMVYLQMDNVKTDDTAMYYCIVVVLTTTRDYFDYWGQGVMVTVSS VL: DIVLTQAPLSVSVTPGESASISCRSSQSLLTVKGITSLYWFLQKPGKSPQLLMYRMSNLASGVPDRFRGSGSETDFTLKISKVETEDVGVYYCAQFLEYPHTFGAGTKLELKR"
3,6.52 nM,"MD707-3 (antibody, V domains shown, also called 7MD07-3; rat anti-human CD127 Mab MD707-3) VH: AVHLVESGGGLVQPKESLKISCAASGFTFSNAAMYWVRQAPGKGLEWVARIRTKANNYATYYAESVKGRFTISRDDSKSMVYLQMDNVKTDDTAMYYCIVVVLTTTRDYFDYWGQGVMVTVSS VL: DIVLTQAPLSVSVTPGESASISCRSSQSLLTVKGITSLYWFLQKPGKSPQLLIYRMSNLASGVPDRFRGSGSETDFTLKISKVETEDVGVYYCAQFLEYPHTFGAGTKLELKR"

# Reference: patent US20140308281A1 (OSE IMMUNOTHERAPEUTICS, published 2014)
